Paper PMC3734851
Values joined by “and” are separate entries in the source; they are usually repeats but may differ in a detail not shown here. Equal entries are not always repeated. Where two headings read alike, the source gives them in different places.

Key:
[1] = molecular target: αβ-tubulin (unpolymerized, as used in gel filtration and analytical ultracentrifugation) (yeast) (UniProt P09733)
[2] = molecular target: αβ-tubulin (unpolymerized, as used in gel filtration and analytical ultracentrifugation) (yeast) (UniProt P09733); experiment: AUC
[3] = molecular target: TOG1-TOG2 of Stu2p (yeast); experiment: AUC
[4] = molecular target: TOG1-TOG2 of Stu2p (yeast); experiment: AUC; remark: listed apart in the source

Kd [1] [µM] | stoichiometry N [2] | stoichiometry N [3] | stoichiometry N [4] | Substance
0.2 to 0.3 | 1 |  |  | TOG2 domain of Stu2p (domain or fragment)
 |  | 1 | 1 and 2 | αβ-tubulin (unpolymerized, as used in gel filtration and analytical ultracentrifugation) (from UniProt P09733 1-447; P02557 1-457) (complex)
